Consider one substance from patent US20040146873.

Numbering of substitutions follows the chain as printed.

The test system of data set [1] is T1, hPER2 fragment, amino acids 474 to 815, S662D, 6-myc-tagged.
T1 sequence: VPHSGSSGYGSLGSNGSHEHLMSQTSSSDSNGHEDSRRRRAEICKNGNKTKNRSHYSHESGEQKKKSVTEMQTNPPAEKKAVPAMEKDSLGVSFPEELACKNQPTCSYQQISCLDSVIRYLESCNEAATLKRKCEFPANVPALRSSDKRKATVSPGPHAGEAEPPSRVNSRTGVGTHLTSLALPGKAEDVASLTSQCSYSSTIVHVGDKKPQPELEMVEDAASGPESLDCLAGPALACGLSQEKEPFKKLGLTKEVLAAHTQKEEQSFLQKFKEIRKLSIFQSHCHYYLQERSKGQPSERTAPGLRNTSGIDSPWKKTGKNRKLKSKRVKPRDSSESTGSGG

In data set [2] the test system is T2, hPER2 fragment, amino acids 474 to 815, S662E, 6-myc-tagged.
T2 sequence: T1 sequence with D189E

Data set [3] concerns T3, hPER2 fragment, amino acids 474 to 815, mutant S662G (662G), 6-myc-tagged.
T3 sequence: T1 sequence with D189G

Data set [4] concerns T4, hPER2 fragment, amino acids 474 to 815, wild-type (662S), 6-myc-tagged.
T4 sequence: T1 sequence with D189S

For data set [5], the system named is hPER2 peptides in the region of serine 662 with a negative charge at position 662 (covalently linked phosphate or aspartate).
Data set [6] deals with mPER2 fragment, amino acids 472 to 804, serine 659 substituted by glycine, 6-myc-tagged (UniProt O54943).
Data set [7] has as its target mPER2 fragment, amino acids 472 to 804, wild-type, 6-myc-tagged (UniProt O54943).

Sequence of casein kinase Iε (CKIε) (P49674 whole entry): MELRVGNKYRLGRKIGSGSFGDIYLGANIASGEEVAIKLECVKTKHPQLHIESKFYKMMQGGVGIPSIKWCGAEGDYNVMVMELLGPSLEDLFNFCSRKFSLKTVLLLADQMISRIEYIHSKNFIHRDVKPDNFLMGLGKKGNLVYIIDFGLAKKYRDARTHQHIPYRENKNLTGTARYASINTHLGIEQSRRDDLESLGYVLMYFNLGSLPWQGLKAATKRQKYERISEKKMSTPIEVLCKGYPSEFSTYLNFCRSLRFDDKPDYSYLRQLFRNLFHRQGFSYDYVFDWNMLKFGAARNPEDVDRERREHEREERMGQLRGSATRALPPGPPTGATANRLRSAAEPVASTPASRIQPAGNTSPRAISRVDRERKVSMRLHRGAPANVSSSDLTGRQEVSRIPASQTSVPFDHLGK

Regarding casein kinase Iε (CKIε), the “phosphorylation (mobility shift)” value in data set [1] was “Phosphorylation was restored in both the S662D and S662E mutants, with a higher phosphorylation rate observed with the S662D mutant”; in data set [2] it was “Phosphorylation was restored in both the S662D and S662E mutants, with a higher phosphorylation rate observed with the S662D mutant”. In addition, the “electrophoretic mobility shift (phosphorylation) at higher CKIε, 6.5 ng/µl” value in data set [3] is “mobility shifts were observed for both the wild type and mutant hPER2 fragments”; in data set [4], “mobility shifts were observed for both the wild type and mutant hPER2 fragments”. The “electrophoretic mobility shift (phosphorylation) at low CKIε, 0.25 ng/µl” value in data set [3] and in data set [4] was “an electrophoretic mobility shift was observed with the wild-type (662S) but not with the mutant (662G) fragment” throughout. The “phosphorylation stoichiometry (biochemical phosphorylation assay and mass spectrometry)” value in data set [5] is “phosphorylation of an additional four moles per mole of substrate when there is a negative charge at serine 662”. The “electrophoretic mobility shift (phosphorylation) at low CKIε” value is “A similar result was obtained with wild-type and mutant mPER2 fragments (data not shown)” in data set [6]; “A similar result was obtained with wild-type and mutant mPER2 fragments (data not shown)” in data set [7].
